Measured values as given in patent US10350264B2, “Compositions and methods for modulating NCOA4-mediated autophagic targeting of ferritin” (Dana-Farber Cancer Institute, Inc., priority 2014, dated 2019).

How the values were obtained:
Format in all cases: binding
[1] = biological target: T1, ferritin purified from horse spleen (mixture of FTH1 and FTL subunits) (Equus caballus, UniProt Q8MIP0); experiment: anti-MYC immunoprecipitation of in vitro translated MYC-NCOA4 constructs incubated with ferritin; details: anti-MYC IP, anti-FTH1 immunoblot, FIG. 5
T1 construct: ferritin purified from horse spleen; purchased Sigma A3641-100 mg; host or cells: horse spleen
Procedure: To probe the interaction between ferritin and NCOA4, initial binding assays using MYC-tagged NCOA4 full-length and truncation constructs produced using an in vitro translation (“IVT”) system were conducted. MYC-NCOA4 fragments were cloned using PCR into a modified T7 cell-free expression vector (pT7CFE1-NMyc, #88863, Thermo Scientific). 1-Step Human Coupled IVT Kit—DNA from Thermo Scientific (product #88881) was used to produce MYC-tagged NCOA4 constructs as described in the product manual. Apoferritin (Sigma, A3641-100 mg) was added in a pull-down assay using anti-c-Myc Agarose Affinity Gel antibody produced in rabbit (Sigma, A7470-1 ML). Affinity purification reactions were washed thoroughly with 150 mM NaCl, 20 mM Tris (pH 7.4), and 2 mM dithiothreitol. Proteins were eluted with SDS sample buffer and analyzed by 4-20% gradient SDS-PAGE and immunoblotting with anti-FTH1 antibody (Cell Signaling 3998; Western blot 1:1,000) or anti-MYC antibody (Santa Cruz Sc-40; western blot 1:1,000).
The full-length, N-terminal (amino acids (aa) 1-245 of SEQ ID NO: 4) and C-terminal (aa 235-614 of SEQ ID NO:4) MYC-NCOA4 were incubated with ferritin purified from horse spleen (Apoferritin (Sigma, A3641-100 mg), consisting of a mixture of FTH1 and FTL subunits) and anti-MYC immunoprecipitation was performed followed by immunoblotting as described above.

[2] = biological target: T2, apo-ferritin purified from equine spleen (Equus caballus, UniProt Q8MIP0); experiment: GST pull-down assay of ferritin using GST-NCOA4 fragments; details: anti-FTH1 immunoblot, FIGS. 7, 8, 11
T2 construct: apo-ferritin purified from equine spleen; purchased Sigma F4503; host or cells: equine spleen
Description: GST-tagged NCOA4 constructs were also made to probe the interactions of C-terminal portions of NCOA4 with ferritin. NCOA4-truncation constructs were produced using Gateway cloning (Invitrogen, Life Technologies, catalog #11789-013 and 11791-019) into a pDEST60 N-terminal GST fusion plasmid (GST-NCOA4) from EMD Millipore (Gateway Nova pET-60-DEST, product #71851-3) and transformed in E. coli BL21 (DE3) cells (New England Biosciences, C2527I).
NCOA4 truncation constructs were designed based on NCBI reference sequence: NP_001138735.1 (SEQ ID NO: 4). In particular, fragments of SEQ ID NO: 4 consisting of amino acids (aa) 1-245, aa 235-614, aa 235-560, aa 235-401, aa 383-560, aa 545-614, aa 383-522, aa 510-560, aa 383-436, aa 436-485, aa 475-522, aa 475-500, aa 480-500, aa 480-504, aa 485-509, aa 490-514, aa 495-522 were designed. Protein expression in the DE3 cells was induced with 1 mM isopropyl-beta-D-thiogalactopyranoside (IPTG) (Sigma, I6758-10 G) for 3 hours at 37° C. Cells were collected by centrifugation, re-suspended in 25 mM Tris-HCl (pH 7.4), 10% (w/v) sucrose and lysed with a single freeze-thaw cycle followed by sonication. After centrifugation, a GST pull-down assay was performed.
(§1) In the GST pull-down assay, lysates were incubated with 10 μl of a 50% (v/v) slurry of glutathione Sepharose 4B beads (GE Healthcare Lifesciences, 17-0756-01) for 30 minutes at 4° C. Beads were washed thoroughly with 150 mM NaCl, 20 mM Tris (pH 7.4), 2 mM dithiothreitol (DTT), 0.5% (w/v) Nonidet P-40, leaving 50-100 μg of GST-fusion protein bound to the beads. Beads were then mixed with 0.5-2 μg of apo-ferritin purified from equine spleen (Sigma F4503) or recombinant human FTH1 or FTL produced in Rosetta E. coli (EMD Millipore, 70953-3). The assay mix was incubated for 2 hours at 4° C., and beads were washed four times with 1 ml wash buffer. Proteins were eluted with SDS sample buffer and analyzed by 4-20% gradient SDS-PAGE and immunoblotting with anti-FTH1 antibody (as above) or anti-FLAG antibody (Sigma, F1804-200 UG). Pounceau stain was used to visualize GST-NCOA4 bands. (Pounceau, Sigma, P7170-1 L, protocol as per product manual).

recombinant human FTH1 = biological target: T3, recombinant human FTH1 (Homo sapiens, UniProt P02794); experiment: GST pull-down assay of recombinant FTH1 using GST-NCOA4; details: recombinant FTH1 from E. coli, 0.2 μg and 1 μg, FIG. 10A
T3 construct: made in house; host or cells: Rosetta E. coli (EMD Millipore, 70953-3)
Procedure: as §1
(§2) To understand if there was subunit specificity for NCOA4 binding to ferritin, the NCOA4 C-terminus (aa 235-614) fusion protein was immobilized on glutathione Sepharose beads, as described in Example 1. Recombinant purified FTH1 or FTL produced in E. coli was added at concentrations of 0.2 μg and 1 μg, and binding was determined using the GST pull-down assay described in Example 1, above.

recombinant human FTL = biological target: T4, recombinant human FTL (Homo sapiens, UniProt P02792); experiment: GST pull-down assay of recombinant FTL using GST-NCOA4; details: recombinant FTL from E. coli, 0.2 μg and 1 μg; FIG. 10B; listed as GST-NCOA4 fragment
T4 construct: made in house; host or cells: Rosetta E. coli (EMD Millipore, 70953-3)
Procedure: as §1, §2

T1 sequence (Q8MIP0 whole entry): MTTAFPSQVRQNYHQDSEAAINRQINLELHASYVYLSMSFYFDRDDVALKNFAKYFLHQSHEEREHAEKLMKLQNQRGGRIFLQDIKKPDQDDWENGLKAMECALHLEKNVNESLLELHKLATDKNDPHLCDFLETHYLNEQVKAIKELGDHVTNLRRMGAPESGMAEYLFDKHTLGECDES
T1 sequence (P02791 2-175 partner limits assumed): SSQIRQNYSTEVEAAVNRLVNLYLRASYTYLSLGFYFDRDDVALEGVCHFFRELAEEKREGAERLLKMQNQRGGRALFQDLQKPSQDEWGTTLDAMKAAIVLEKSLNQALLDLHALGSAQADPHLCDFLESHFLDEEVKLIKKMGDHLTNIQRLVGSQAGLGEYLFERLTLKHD
T3 sequence (P02794 whole entry): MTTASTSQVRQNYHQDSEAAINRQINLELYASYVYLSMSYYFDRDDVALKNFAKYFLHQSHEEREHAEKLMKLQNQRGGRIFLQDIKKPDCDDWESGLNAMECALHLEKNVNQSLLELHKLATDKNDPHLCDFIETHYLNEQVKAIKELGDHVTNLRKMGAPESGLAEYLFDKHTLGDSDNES
T4 sequence (P02792 whole entry, the tested form may be a part): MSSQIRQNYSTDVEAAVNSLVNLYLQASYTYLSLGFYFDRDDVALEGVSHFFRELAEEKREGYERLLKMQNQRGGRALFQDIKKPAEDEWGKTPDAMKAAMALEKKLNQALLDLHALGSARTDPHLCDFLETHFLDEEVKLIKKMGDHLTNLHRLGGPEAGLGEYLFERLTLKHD
T2 sequence (Q8MIP0 whole entry, the tested form may be a part): as the sequence (Q8MIP0 whole entry) above
T2 sequence (P02791 2-175 partner limits assumed): as the sequence (P02791 2-175 partner limits assumed) above

association of MYC-NCOA4 construct with ferritin [1]: associated with ferritin
association of MYC-NCOA4 construct with ferritin ([1]; listed as C-terminal NCOA4): bind to ferritin
binding of GST-NCOA4 fragment to ferritin [2]: bound to ferritin
binding of GST-NCOA4 to FTH1 (recombinant human FTH1; listed as GST-NCOA4 fragment): binds to FTH1
binding of GST-NCOA4 to FTH1 (recombinant human FTH1; listed as NCOA4 C-terminus): interacted with the NCOA4 C-terminus
binding of GST-NCOA4 to FTL (recombinant human FTL): binds minimally to FTL
B1: aa 235-614: NCOA4 C-terminal fragment, amino acids 235-614 of SEQ ID NO: 4 (protein)
chain: ENSQTSSRACNFFNNVGGNLKGLENWLLKSEKSSYQKCNSHSTTSSFSIEMEKVGDQELPDQDEMDLSDWLVTPQESHKLRKPENGSRETSEKFKLLFQSYNVNDWLVKTDSCTNCQGNQPKGVEIENLGNLKCLNDHLEAKKPLSTPSMVTEDWLVQNHQDPCKVEEVCRANEPCTSFAECVCDENCEKEALYKWLLKKEGKDKNGMPVEPKPEPEKHKDSLNMWLCPRKEVIEQTKAPKAMTPSRIADSFQVIKNSPLSEWLIRPPYKEGSPKEVPGTEDRAGKQKFKSPMNTSWCSFNTADWVLPGKKMGNLSQLSSGEDKWLLRKKAQEVLLNSPLQEEHNFPPDHYGLPAVCDLFACMQLKVDKEKWLYRTPLQM
modifications: Homo sapien
